Test results: patent publication US9878016B2, “IGFBP-3 derivatives and uses thereof” (INSERM (Institut National de la Sante et de la Recherche …, priority 2011, dated 2018)

Assays:
MMP-9 = MMP-9 (Homo sapiens, UniProt P14780); test: Proteolytic digestion by activated MMP-9 (SDS-PAGE); type: biochemical; details: substrate 20 μM, 1:10 molar ratio, enzyme activated with 1 mM APMA
Protocol: (§1) The ability of mini-IGFBP-3 to resist proteolytic digestion by Matrix Metalloproteinases, MMP-7 and MMP-9, is also currently being tested. MMP-7 and MMP-9 are expressed by tumor cells and are present in higher quantity in the bloodstream of cancer patients where they contribute to the degradation of native, endogenous IGFBP-3. In the experiments, these enzymes are first activated with 1 mM APMA. Mini-IGFBP-3 and full length IGFBP-3 are compared as substrate for activated MMP-7 and MMP-9. Concentrations of each substrate (20 μM) are incubated in a 1:10 molar ratio with either MMP-7 or MMP-9. At the end of the incubation period, proteins are analyzed by SDS-PAGE to evaluate their respective cleavage into fragments.

MMP-7 = biological target: T1, MMP-7 (Homo sapiens, UniProt P09237); test: Proteolytic digestion by activated MMP-7 (SDS-PAGE); type: biochemical; details: substrate 20 μM, 1:10 molar ratio, enzyme activated with 1 mM APMA
T1 sequence (P09237 95-267): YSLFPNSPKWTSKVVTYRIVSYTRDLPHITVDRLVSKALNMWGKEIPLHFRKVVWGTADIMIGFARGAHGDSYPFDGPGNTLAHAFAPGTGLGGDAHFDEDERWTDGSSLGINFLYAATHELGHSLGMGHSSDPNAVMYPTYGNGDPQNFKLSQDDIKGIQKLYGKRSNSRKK
Protocol: as §1

IGF-I = IGF-I (Homo sapiens, UniProt P05019); test: Affinity for IGF-I: competition with 125I-IGF-1 tracer, Scatchard analysis; type: binding; details: association constant, IGF-I competitor
Protocol: (§2) The affinity of wild type (wt) IGFBP-3 and of mutated IGFBP-3 (mini-IGFBP-3) for IGF-I and IGF II was determined using ^125I-IGF-1 as a radioactive tracer. Various concentrations of IGF-I and IGF-II were used as competitors and affinity constants were determined by Scatchard analysis.

IGF-II [1] = biological target: T2, IGF-II (Homo sapiens, UniProt P01344); test: Affinity for IGF-II: competition with 125I-IGF-1 tracer, Scatchard analysis; type: binding; details: association constant, IGF-II competitor
T2 construct: before undergoing regulated endoproteolytic cleavage to the mature form (IGF-II)
Protocol: as §2

[2] = Decay of concentrations in mouse plasma after intravenous injection (ELISA); type: in vivo; details: mice, 250 μg intravenously
Protocol: 250 μg of the indicated protein were injected intravenously to groups (n=3) of mice at time zero. Blood samples were drawn at the indicated time points, centrifuged and kept frozen. Concentrations of injected proteins were determined by an in-house sandwich type ELISA using anti-human IGFBP-3 specific monoclonal antibodies.
To pave the ground for future assessments of mini-IGFBP-3 in vivo activity, mini-IGFBP-3 and its derivatives were injected into mice. When measured using human-specific IGFBP-3 ELISA test, several kinetics could be observed.

[3] = test system: AKT phosphorylation in A549 (lung cancer); test: AKT phosphorylation, A549 cells; type: cell-based, human; details: different incubation times
Protocol: (§3) These effects are compared to those of ppp (see Example 5 for experimental details). FIG. 11(B) is a graph showing the effects of mini-IGFBP-3-Fc on the phosphorylation of AKT in MiaPaCa-2 cells (upper left), HT-29 cells (upper right) and A549 cells (lower left) and of […] on the phosphorylation of AKT in A549 cells (lower right) after different incubation times, as indicated (see Example 5 for experimental details).
(§4) The inhibiting activity of mini-IGFBP-3-Fc on AKT phosphorylation was also assessed in various human tumor cell lines: MiaPaCa-2 (pancreatic cancer), HT-29 (colon cancer) and A549 (lung cancer). The inhibiting activity of mini-IGFBP-3 on AKT phosphorylation was assessed A549 cells.

[4] = test system: HT-29 human colorectal tumor xenografts; test: Tumor signalling in mice bearing HT-29 xenografts, 12 hours treatment (western immunoblots); type: in vivo, NMRI-nu mice; details: three i.p. injections (340 μg) every 3 hours, sacrifice at 12 hours; for Erk1/2 phosphorylation in tumors / Rb phosphorylation in tumors: vs untreated
Protocol: Thus, HT-29 xenografts were established in nude mice. After tumor had reached a critical size, mice were treated with either mini-IGFBP-3 or mini-IGFBP3-Fc in three i.p. injections separated by a three hours interval and mice were sacrificed after […]. Tumor MEK and PI3Kinase signalling pathways were assessed in these tumors, together with the cell cycle regulator Rb, by evaluating the phosphorylation status of AKT, ERK-1/2 and Rb, respectively, using western immunoblots.
More specifically, 2.5×10^6 HT-29 cells were injected s.c. into each flank of 5 weeks old NMRI-nu mice. Tumors were allowed to grow up to a volume of 500 mm^3 before mice were randomized into individual treatment groups (n=2) and received three i.p. injections (340 μg) of either mini-IGFBP-3 or mini-IGFBP-3-Fc every 3 hours. The control group was injected with saline. Twelve (12) hours after treatment initiation, mice were sacrificed and excised tumors were cut in half. One half was snap frozen in liquid nitrogen and stored at −80° C. The other half was fixed in Finfix, included in paraffin and processed for immuno-histochemistry. For Western blot analysis, tumors were homogenized in lysis buffer (10 mM Tris HCl at pH 7.4, 150 mM NaCl, 1% Nonidet P-40, 0.1% sodium deoxycholate, 0.1% SDS, 1 mM EDTA, 2 mM sodium orthovanadate, protease inhibitor tablet [Roche Molecular Biochemicals]). After centrifugation, protein concentrations were determined by the Bio-Rad protein assay (Bio-Rad). Fifteen micrograms of protein were run on a 4%-12% SDS-PAGE gel (Invitrogen). Membranes were blocked in 5% nonfat milk in TBS-T overnight at 4° C., washed with TBS-T, incubated with anti-mouse or anti-rabbit horseradish peroxidase-conjugated secondary antibodies in TBS-T for 1 hour at room temperature, and washed in TBS-T. The signal was visualized using an enhanced chemiluminescence solution and exposed to film. The blotting antibodies used wherein phosphor-Akt, Akt, mitogen-activated protein kinase ERK1/2, phosphor-mitogen-activated protein kinase pErk1/2, Rb (BD Biosciences), β-actin and G3PDH; antibodies were from Cell Signalling Technology unless otherwise stated.

[5] = test system: AKT phosphorylation in MiaPaCa-2 (pancreatic cancer); test: AKT phosphorylation, MiaPaCa-2 cells; type: cell-based, human; details: different incubation times
Protocol: as §3, §4

HuH7 = test: Cell viability assay (WST-1), HuH7; type: cell-based, human; details: 100 nM, 72 hours, 10% FCS
Protocol: (§5) The effects of mini-IGFBP-3-Fc on the proliferation and survival of three human tumor cell lines, Hep3B and HuH7—hepatocellular carcinoma cell lines) and INA-6 (multiple myeloma cell line), were studied. For each cell line cultivated in the presence of 10% fetal calf serum (FCS), the effect of mini-IGFBP-3-Fc were compared to the effect picropodophyllin (ppp), a compound known to interfere with the IGF1-R signalling pathway. A cell viability assay was performed 72 hours after initiation of the culture in the presence of mini-IGFVP-3-Fc (100 nM) or ppp (1 μM) in a medium containing 10% FCS by adding WST-1 and monitoring formazan conversion.

Hep3B = test: Cell viability assay (WST-1), Hep3B; type: cell-based, human; details: 100 nM, 72 hours, 10% FCS
Protocol: as §5

[6] = test system: phosphorylation of AKT in INA-6 myeloma cells; test: AKT phosphorylation, INA-6 myeloma cells (western blot); type: cell-based; details: 100 nm; 3, 6 or 24 hours; 10% FCS
Protocol: The INA-6 myeloma cell line was grown in the presence of 10% FCS. The cells were incubated with mini-IGFBP-3 (100 nm) or ppp (1 μM) 3, 6 or 24 hours. After incubation, the cells were lysed using a lysis buffer, and cell extracts (normalized for protein contents) were loaded on SDS-PAGE gel, transferred onto nitrocellulose membrane, which was further incubated with a monoclonal antibody directed against the […] residue of the AKT protein. The membrane was also re-probed after stripping with an anti-actin antibody to check for equal loading.

[7] = test system: AKT phosphorylation in HT-29 (colon cancer); test: AKT phosphorylation, HT-29 cells; type: cell-based, human; details: different incubation times
Protocol: as §3, §4

INA-6 = test: Cell viability assay (WST-1), INA-6; type: cell-based, human; details: 100 nM, 72 hours, 10% FCS
Protocol: as §5

IGF-II [8] = biological target: T2, IGF-II; test: Solid-phase assay: displacement of biotinylated IGF-II tracer from immobilized binding protein; details: increasing free IGF-II
Source text: FIG. 10(A) is a graph showing the relative binding affinity of mini-IGFBP-3 and mini-IGFBP-3-Fc towards IGF-II. The solid phase assay used measured the ability of increasing concentrations of free IGF-II to displace binding of the biotinylated IGF-II tracer to mini-IGFBP-3 and mini-IGFBP-3-Fc immobilized on a support (See Example 5 for experimental details). FIG. 10(B) is a graph showing the effects of mini-IGFBP-3-Fc on proliferation and survival of three human tumor cell lines cultivated in the presence of 10% FCS: Hep3B, HuH7 and INA-6. The effects of mini-IGFBP-3-Fc are compared to the effects of picropodophyllin (ppp), a compound known to interfere with IGF-R signalling pathway (see Example 5 for experimental details).
A solid-phase assay was used to study the binding affinity of mini-IGFBP-3-Fc for IGF-II. In this assay, two binding proteins (mini-IGFBP-3 and mini-IGFBP-3-Fc) were immobilized to a support. They were incubated with the biotinylated IGF-II tracer, and then increasing concentrations of IGF-II were added.

T2 sequence (P01344 25-91 limits assumed): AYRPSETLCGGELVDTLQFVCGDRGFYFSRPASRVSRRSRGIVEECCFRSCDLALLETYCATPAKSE
Sequence of MMP-9 (P14780 107-707 limits assumed): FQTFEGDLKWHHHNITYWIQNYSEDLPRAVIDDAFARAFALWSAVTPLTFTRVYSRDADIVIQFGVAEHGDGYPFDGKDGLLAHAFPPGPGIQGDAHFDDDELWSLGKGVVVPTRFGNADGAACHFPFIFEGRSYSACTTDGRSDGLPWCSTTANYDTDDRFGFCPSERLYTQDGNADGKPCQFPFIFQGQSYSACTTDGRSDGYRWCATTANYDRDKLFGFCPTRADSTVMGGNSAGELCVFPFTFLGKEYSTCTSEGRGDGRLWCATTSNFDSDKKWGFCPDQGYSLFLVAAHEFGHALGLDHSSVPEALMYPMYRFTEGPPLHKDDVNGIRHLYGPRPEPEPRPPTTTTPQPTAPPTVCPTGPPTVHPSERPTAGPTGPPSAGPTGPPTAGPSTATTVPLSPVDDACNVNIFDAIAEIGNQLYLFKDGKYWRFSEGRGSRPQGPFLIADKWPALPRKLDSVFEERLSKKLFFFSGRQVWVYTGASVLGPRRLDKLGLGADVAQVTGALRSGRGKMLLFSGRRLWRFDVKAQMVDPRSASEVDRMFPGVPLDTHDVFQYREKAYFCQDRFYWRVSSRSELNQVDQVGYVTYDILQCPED
Sequence of IGF-I (P05019 49-118 limits assumed): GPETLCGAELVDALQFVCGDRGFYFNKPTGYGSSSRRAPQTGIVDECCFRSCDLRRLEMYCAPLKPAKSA

cleavage by MMP-9 (MMP-9) | cleavage by MMP-7 (MMP-7) | affinity constant for IGF-I (IGF-I) [M⁻¹] | affinity constant for IGF-II (IGF-II [1]) [M⁻¹] | apparent affinity for IGF-II compared with unfused mini-IGFBP-3 (IGF-II [8]) | Molecule | fraction of the initial dose that left the bloodstream in the first 3-4 hours [2] | remaining fraction that disappeared very slowly until 48 hours [2] | AKT phosphorylation in A549 cells [3] | AktS473 phosphorylation in tumors [4] | mitotic index compared to untreated tumors [4] [%] | Erk1/2 phosphorylation in tumors [4] | Rb phosphorylation in tumors [4] | AKT phosphorylation in MiaPaCa-2 cells [5] | proliferation and survival of HuH7 (HuH7) | proliferation and survival of Hep3B (Hep3B) | phosphorylation of AKT in INA-6 cells [6] | AKT phosphorylation in HT-29 cells [7] | half-life of serum concentration ([2]; single slope kinetics) | proliferation and survival of INA-6 (INA-6)
resists this proteolytic attack | resists this proteolytic attack | 2.4e+10 | 3.14e+10 |  | mini-IGFBP-3: Human IGFBP-3 mutein: 85 central-domain residues (95 to 179) replaced by 15 amino acid spacer GGGSGGSGGSGGSGG (SEQ ID NO: 4) | 80-90% | 10-20% | able to block the AKT phosphorylation | abolished | −12 | considerably decreased | decreased |  |  |  |  |  |  | 
digested | digested | 2.96e+10 | 3.5e+10 |  | wt IGFBP-3: Recombinant wild type human IGFBP-3 with hexahistidine N-terminal extension, comparator [reference compound] |  |  |  |  |  |  |  |  |  |  |  |  |  | 
 |  |  |  | higher apparent affinity | mini-IGFBP-3-Fc: Immunoadhesin fusion protein joining mini-IGFBP-3 to the Fc fragment of human IgG1 (protein, left off: a dimerising Fc or GST, Immunoadhesin fusion protein joining mini-IGFBP-3 to the Fc fragment of human IgG1) GASSAGLGPVVRCEPCDARALAQCAPPPAVCAELVREPGCGCCLTCALSEGQPCGIYTERCGSGLRCQPSPDEARPLQALLDGRGLCVNASAVSGGGSGGSGGSGGSGGETEYGPCRREMEDTLNHLKFLNVLSPRGVHIPNCDKKGFYKKKQCRPSKGRKRGFCWCVDKYGQPLPGYTTKGKEDVHCYSMQSK |  |  | able to block the AKT phosphorylation | abolished | −12 | considerably decreased | decreased | able to block the AKT phosphorylation | anti-proliferative activity | anti-proliferative activity | inhibiting effects | able to block the AKT phosphorylation | about 12 hours | anti-proliferative activity
